This experiment addresses Recombinant human His6-tagged Hsp70 (human), P0DMV8. Description: ELISA with streptavidin-peroxidase after gel filtration of Hsp70 loaded with biotinylated peptide C (ADP).

No end group written: not given here. *: point of attachment. Biotin = O=C1N[C@H]2[C@H](CS[C@H]2CCCCC(=O)*)N1

Chain of Recombinant human His6-tagged Hsp70 (human), P0DMV8 (P0DMV8 2-641): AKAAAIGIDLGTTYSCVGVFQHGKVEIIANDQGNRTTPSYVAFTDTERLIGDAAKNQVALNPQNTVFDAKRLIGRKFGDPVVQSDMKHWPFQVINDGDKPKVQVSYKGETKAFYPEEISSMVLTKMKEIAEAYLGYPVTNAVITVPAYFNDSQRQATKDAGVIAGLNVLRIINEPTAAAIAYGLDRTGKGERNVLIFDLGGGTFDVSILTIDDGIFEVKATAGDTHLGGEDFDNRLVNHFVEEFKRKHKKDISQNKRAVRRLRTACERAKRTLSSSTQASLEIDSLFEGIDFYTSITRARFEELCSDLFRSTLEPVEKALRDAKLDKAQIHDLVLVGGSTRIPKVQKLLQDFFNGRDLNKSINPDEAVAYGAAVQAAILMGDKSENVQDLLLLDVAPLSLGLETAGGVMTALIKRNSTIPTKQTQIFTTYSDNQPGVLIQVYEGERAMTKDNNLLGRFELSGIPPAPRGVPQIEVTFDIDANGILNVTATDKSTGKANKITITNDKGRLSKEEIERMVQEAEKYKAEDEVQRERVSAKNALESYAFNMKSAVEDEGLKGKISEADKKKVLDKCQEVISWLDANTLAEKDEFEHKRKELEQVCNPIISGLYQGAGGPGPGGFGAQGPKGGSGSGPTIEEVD

Consider Biotin-GCEVFGLGWRSYKH [Biotinylated peptide C (biotin-…)], for which the yield of Hsp70 complex formation lay within 20 to 30%.

These data come from patent US20040071656A1, “Modulation of heat-shock-protein-based immunotherapies” (priority 2001, published 2004).
